Changes are numbered by the printed parent chain. In names and notes the source's numbering stands.
B1: P01500002 = h2 variant 2HFO42: 2HF042(Q1E, Q5V, A14P, V40A, L79Y, K83R, K105Q, Q108L)-HIS6 (VHH)
VHH: EVQLVESGGGLVQPGGSLRLSCAASGSGFSGMIMGWYRQAPGKQRELVATVTSHGTTNYADSVKGRFTISRDNAKNTVYLQMNSLRPEDTAVYYCNAHFPGIYWGQGTLVTVSS
notes: Entry includes the tag
B2: P01500004: 2HF042(Q1E, Q5V, Q108L)-HIS6 (VHH)
VHH: B1 VHH with P14A, A40V, Y79L, R86K, Q106K
notes: Entry includes the tag; also called 2HFO42 (P01500004); Nb42
B3: VHH 2MFR32 (VHH)
VHH: QVQLQESGGGLVQAGGSLRVSCAASGFPFSTVYMSWVRQAPGKGLEWVSGINSNGGVIDYADSVKGRFTISRDNANNTLYLQLNSLKPEDTALYFCAKGRAFVATMPSSLRGQGTQVTVSS
notes: also called 2MF832
B4: P01500006: 2HF042(Q1E, Q5V, A14P, V40A, L79Y, K83R, Q108L)-FLAG3-HIS6 (VHH)
VHH: B1 VHH with Q106K
notes: Entry includes the tags; also called P0150006
B5: P01500008: 2MFR67(Q1E, Q5V, Q108L)-FLAG3-HIS6 (VHH)
VHH: B1 VHH with P14A, D72E, N73D, A74S, Y79L, R86K, Q106K
notes: Entry includes the tags; also called 2MFR67-Flag3-His6
B6: P01500003: 2HF019(Q1E, Q5V, Q108L)-HIS6 (VHH)
VHH: EVQLVESGGGLVQPGGSLRVSCAASGFPFSTVYMSWVRQAPGKGLEWVSGINNDGGVIDYADSVKGRFTISRDNAKNTLYLQLNSLKPEDTALYFCARGRSFVATLSSSLRGQGTLVTVSS
notes: Entry includes the tag; also called 2HFO19 (P01500003); Nb19

Legend:
[1] = target: T1, mouse folate receptor alpha (mFRα), recombinant protein (mouse, UniProt P35846 25-232); assay: BLI, Avi-biotinylated FRα on streptavidin biosensors, VHH 100 nM
T1 construct: Bought recombinant proteins (e.g. biotinylated, Acro Biosystems FO1-M82E9); also called mFOLR1; Ms FOLR1
T1 sequence (P35846 25-232 limits assumed): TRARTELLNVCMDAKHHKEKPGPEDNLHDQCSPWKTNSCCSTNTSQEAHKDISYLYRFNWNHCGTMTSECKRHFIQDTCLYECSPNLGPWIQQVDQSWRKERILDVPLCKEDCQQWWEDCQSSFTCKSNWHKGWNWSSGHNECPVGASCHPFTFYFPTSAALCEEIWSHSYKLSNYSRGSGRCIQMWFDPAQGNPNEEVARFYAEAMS
Experimental: (§1) The binding of humanized variants of 2HFO42 was assessed by kinetic binding analysis to mouse and human FRα protein, biotinylated via an Avi-tag, captured on streptavidin biosensors by biolayer interferometry ^{∘}BLI), essentially as described earlier. VHHs were analysed at 100 nM concentration, and off-rates were determined using fitting of 1:1 langmurian interaction. Dissociation constants were compared to 2HFO42^{∘}Q1E, Q5V, Q108L) ^{∘}P101500004) and 2MFR67 ^{∘}Q1E, Q5V, Q108L) ^{∘}P0150000), respectively.

[2] = target: T2, human folate receptor alpha (hFRα), recombinant protein (human, UniProt P15328 25-233); assay: as above
T2 construct: Bought recombinant proteins (His-tagged, or biotinylated via Avi-tag, e.g. AcroBiosystems FO1-H82E2, F01-H52H1); also called hFOLR1; huFOLR1
T2 sequence (P15328 25-233 limits assumed): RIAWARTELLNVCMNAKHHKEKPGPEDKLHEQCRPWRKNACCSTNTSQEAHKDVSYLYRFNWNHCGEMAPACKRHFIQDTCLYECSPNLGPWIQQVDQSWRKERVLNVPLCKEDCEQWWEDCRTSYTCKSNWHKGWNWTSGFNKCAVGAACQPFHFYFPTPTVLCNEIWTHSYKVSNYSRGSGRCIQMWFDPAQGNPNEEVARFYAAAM
Experimental: as §1

[3] = target: T1, mouse folate receptor alpha (mFRα), …; assay: ELISA on mouse FRα, anti-VHH detection
How it was run: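 Binding of VHH constructs to mouse folate receptor alpha across a range of doses was measured by ELISA, with an anti-VHH reagent used for detection. The EC50 was taken from the dose-response curve.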

[4] = target: T2, human folate receptor alpha (hFRα), …; assay: competition AlphaLISA against 2MFR67-Flag3-His6 on human FRα
Experimental: Secondly, the variants were analysed for the capacity to compete with binding of family 3 VHH 2MFR67 to human FRα in a competition AlphaLISA, which is a homogeneous assay without wash steps. In here, human FRα biotinylated through an Avi-tag ^{∘}FO1-H82E2, AcroBiosystems) is captured on streptavidin coated Alpha Donor beads ^{∘}Perkin Elmer, Cat nr. 6760002), while the 2MFR67 is captured on anti-Flag antibody AlphaLISA acceptor beads ^{∘}Perkin Elmer, Cat nr. AL112C). Binding of 2MFR67 to the FRα leads to an energy transfer from one bead to the other, ultimately producing a fluorescent signal. To each well of white low binding 384-well microtitre plates ^{∘}F-bottom, Greiner Cat nr 781904), 5 μl of serial-diluted VHHs are mixed with 5 μl of 2.5 nM monovalent 2MFR67-Flag3-His6 and 5 μl of 15 nM biotinylated human FRα protein. After an incubation for 1 hour at room temperature, streptavidin coated Alpha Donor beads and anti-Flag AlphaLISA acceptor beads were added to a final concentration of 20 μg/mL each in a final volume of 25 μl for an incubation of 1 hour at room temperature in the dark. Interaction between beads was assessed after illumination at 680 nm and reading at 615 nm of on an Ensight instrument. Curve fitting is done in Graphpad Prism 9.0 using 4PL non-linear regression analysis.

[5] = target: T1, mouse folate receptor alpha (mFRα), …; assay: BLI tandem binning on mouse FRα; competitor (1st association) 2HFO42
Excerpt: (§2) VHHs that share high sequence identity in the CDR3 region, a VHH family, are derived from the same B-cell lineage and diverged from each other due to somatic hypermutation or affinity maturation. Typically, VHHs from the same family recognize the same epitope on the target, but may differ in other characteristics ^{∘}De Genst et al 2006 PNAS 103:4586-4591; De Gents et al 2005 J Biol Chem 280:14114-14121). To study whether the VHHs from the different families bound different epitopes, epitope binning was performed using a tandem binding approach in BLI. One VHH from each family was allowed to bind to mouse FRα on the biosensor, followed by binding of the second VHH ^{∘}Table 4).
(§3) Competition between VHHs from different complementarity determining region ^{∘}CDR) 3 families was assessed in a tandem binding assay using biolayer interferometry ^{∘}BLI). Streptavidin biosensors were loaded with biotinylated mouse FRα ^{∘}Acro Biosystems, Cat.nr. FO1-M82E9), followed by binding of anti-FRα VHHs ^{∘}VHH in first association). The biosensors were then transferred to a solution containing a second VHH mixed 1:1 with the first VHH ^{∘}VHH in second association). Using the FortéBio Data Analysis Software the absolute additional binding signal for the second association on top of the first association was calculated. The data were normalized per VHH in first association using the following formula: ^{∘}signal-self)/^{∘}maximum-self) with self being the value of the VHH in first association in combination with the same VHH in second association.

[6] = target: T1, mouse folate receptor alpha (mFRα), …; assay: BLI tandem binning on mouse FRα; competitor (1st association) 2HFO19
Excerpt: as §2, §3

[7] = target: T1, mouse folate receptor alpha (mFRα), …; assay: BLI tandem binning on mouse FRα; competitor (1st association) 3MFR60
Excerpt: as §2, §3

[8] = target: T1, mouse folate receptor alpha (mFRα), …; assay: BLI tandem binning on mouse FRα; competitor (1st association) 2MFR32
Excerpt: as §2, §3

[9] = target: T3, human folate receptor alpha expressed on cells (transfected HEK293T, HeLa, MCF7, MDA-MB-231) (human, UniProt P15328 25-234); assay: flow cytometry on HeLa cells, anti-Flag detection
T3 construct: HEK293T transiently transfected with human FOLR1; also called native human FRα; cell-expressed human FOLR1
T3 sequence (P15328 25-234 limits assumed): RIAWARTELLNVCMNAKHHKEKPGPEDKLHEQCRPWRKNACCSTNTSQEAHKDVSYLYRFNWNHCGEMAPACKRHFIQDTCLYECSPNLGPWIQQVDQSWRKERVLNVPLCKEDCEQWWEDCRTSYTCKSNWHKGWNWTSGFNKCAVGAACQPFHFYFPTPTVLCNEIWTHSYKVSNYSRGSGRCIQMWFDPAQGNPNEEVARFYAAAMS
Experimental: EC₅₀ values are found in Table 9. Detection of VHH cell binding was done through anti-Flag M2 mIgG1 followed by anti-mFc-PE in flow cytometry. Results are depicted as mean fluorescence intensity ^{∘}MFI).
(§4) Off-rates of purified variants were determined to human, mouse, and cynomolgus FRα in BLI. In addition, binding of the affinity optimised variants to cell-expressed human FRα on HeLa cells was determined by flow cytometry ^{∘}FIG. 10 B).

[10] = target: T1, mouse folate receptor alpha (mFRα), …; assay: BLI
How it was run: (§5)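 Biotinylated human and mouse folate receptor alpha were immobilised on streptavidin biosensors, and off-rates were read by biolayer interferometry, with a 1:1 binding model applied in the calculation. Each variant's koff is expressed as a signed fold change relative to its wild-type VHH, positive as wild-type over variant for a better off-rate and negative as variant over wild-type for a worse one.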

[11] = target: T2, human folate receptor alpha (hFRα), …; assay: BLI
How it was run: as §5

[12] = target: T4, cynomolgus folate receptor alpha, recombinant (cynomolgus, UniProt A0A2K5U044 25-233); assay: BLI, purified VHH
T4 construct: also called cyFOLR1; cynomolgus FRα
T4 sequence (A0A2K5U044 entry or part of it): as the sequence (P15328 25-233 limits assumed) above, with I2T, W4R, R37K, A146P, H171Y counted along it
How it was run: (§6)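 Off-rates to folate receptor alpha from human, mouse and cynomolgus were measured by biolayer interferometry. The VHH proteins tested were made with a flag3-His6 tag in TG-1 E. coli at 0.5 L scale and isolated from the periplasm on Ni Sepharose FastFlow columns.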

[13] = target: T1, mouse folate receptor alpha (mFRα), …; assay: BLI, purified VHH
How it was run: as §6

[14] = target: T2, human folate receptor alpha (hFRα), …; assay: BLI, purified VHH
How it was run: as §6

[15] = target: T1, mouse folate receptor alpha (mFRα), …; assay: BLI, VHH captured by anti-FLAG antibody on mouse Fc biosensors
How it was run: (§7)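 Biolayer interferometry was used to measure binding of VHHs to human, mouse and rhesus monkey folate receptor alpha. Each VHH was first captured on mouse Fc biosensors with an anti-FLAG tag antibody. A 1:1 binding model was applied to derive kon, koff and the equilibrium dissociation constant (KD).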

[16] = target: T5, rhesus monkey folate receptor alpha, recombinant (rhesus monkey, UniProt F7BP60 25-233); assay: as above
T5 construct: also called rhFolR1; rhesus macaque FRα
T5 sequence (F7BP60 entry or part of it): as the sequence (P15328 25-233 limits assumed) above, with I2T, W4R, R37K, A146P, H171Y counted along it
How it was run: as §7

[17] = target: T1, mouse folate receptor alpha (mFRα), …; assay: BLI, Avi-biotinylated FRα
Experimental: (§8) Purified VHHs ^{∘}100 nM) were analysed for binding to avi-tagged biotinylated FRα protein captured on streptavidin-biosensors via BLI.
as §4

[18] = target: T2, human folate receptor alpha (hFRα), …; assay: BLI, Avi-biotinylated FRα
Experimental: as §8, §4

[19] = target: T2, human folate receptor alpha (hFRα), …; assay: BLI, VHH captured by anti-FLAG antibody on mouse Fc biosensors
How it was run: as §7

| Binder | koff [1] [s⁻¹] | koff [2] [s⁻¹] | EC50 (read off the curve) [3] [nM] | IC50 [4] [nM] | EC50 [9] [nM] | MFI top [9] [MFI] | koff [12] [s⁻¹] | koff [13] [s⁻¹] | koff [14] [s⁻¹] | Kd [15] [nM] | koff [15] [s⁻¹] | kon [15] [M⁻¹ s⁻¹] | Kd [16] [nM] | koff [16] [s⁻¹] | kon [16] [M⁻¹ s⁻¹] | other results |
| --- | --- | --- | --- | --- | --- | --- | --- | --- | --- | --- | --- | --- | --- | --- | --- | --- |
| B1 | 0.00307 | 0.0132 | ~5 | 43.7 |  |  |  |  |  |  |  |  |  |  |  |  |
| B2 | 0.00193 | 0.0102 | ~4 | 39 |  |  |  |  |  |  |  |  |  |  |  |  |
| B3 |  |  |  |  |  |  |  |  |  |  |  |  |  |  |  | normalized additional binding in 2nd association [5]: 100%; normalized additional binding in 2nd association [6]: 100%; normalized additional binding in 2nd association [7]: 100%; normalized additional binding in 2nd association [8]: 0% |
| B4 | 0.00252 | 0.012 |  |  | 32.4 | 35300 | 0.00158 | 0.00174 | 0.00947 | 6.77 | 0.00249 | 367000 | 27.7 | 0.016 | 577000 | koff [10]: 0.00162 s⁻¹; nm (Fold wt) [10]: 1; koff [11]: 0.0132 s⁻¹; nm (Fold wt) [11]: 1; koff [17]: 0.00189 s⁻¹; koff [18]: 0.00967 s⁻¹ |
| B5 | 0.00042 | 0.00304 |  |  | 5.6 | 54900 | 0.000454 | 0.000447 | 0.00282 | 2.52 | 0.000571 | 227000 | 13.8 | 0.00434 | 315000 | Kd [19]: 8.78 nM; koff [19]: 0.0031 s⁻¹; kon [19]: 353000 M⁻¹ s⁻¹ |
| B6 | 0.00052 | 0.00499 |  | 7.55 |  |  |  |  |  |  |  |  |  |  |  |  |

From US20250304677A1 (VIB VZW, published 2025)
